Measurements reported in the domain aggregation screens of Martell et al. (2025).

assay: soluble fraction after stress (log2 fold change); higher = more stays soluble; pooled small domains, quantitative proteomics; settings: stress: 50 degC
Procedure, shortened: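 Pooled custom libraries of small protein domains were measured in a high-throughput format, with quantitative proteomics as the read-out. Each library was stressed at 50°C. Aggregation propensity is given as the base-two logarithm of the fold change in how much of each protein stays soluble after the stress. Higher values mean a larger share of the protein remains in solution.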

Sequence | soluble fraction (log2)
HMHDEKHHQLANEIARKWAALRGNRDFAAADELKNLAAEAGVELQATKQAVGQGALAKLKENFDPVKLEAL | 0.188
HMADEIMYPVQVNGKVRAEIFVAADQSKNKELVLEMAKSEERVQKYLEEGNLIKEIFVPGRIVNLVI | 0.0273
HMYEVVPNMKGLSYEQAATALRTAGLEPELSDSIYDDKTRPGTVLEQSPRANTKVKPGRTVYLTVNAF | 0.0459
HMQGVTVPDLTRVSLEEAVATISSLGLRYEISDRRSNAAFPANYVLDQAPGANTIVKPNRKVYLTVNAA | 0.35
HMGDLKALMPGKVTQVLVSGGQKVKVGEPVLLMESMKMEQTIVATKDGDISEILVSEGDTVEVGKIMIKI | 0.163
HMEVNLEPLIALLRKHRDLDLSGYSKSTLGRRITYFMGLNKISSIDELGRRLAEDDLLFQEFLDKLT | -0.0655
HMGATFITSSKDNAINIRQAAGTDSKVIETIKNGHILESSEKSGEWYKVTYYDSDIKKTFTGYIHNSQLK | 0.159
HMNNQIFGLKFRQLRKQQHITLAKAAAGITSRQSLGNWETGKGELAFEKVLLLLKKINVQPIDFLESSIS | -3.67
HMKVTQDIIFKRNGEEIKSKVLEITPDLIIYIDYSRADNIAREINISEVNMIIYKNGTSEIFSRPEE | 0.101
HMDTIGSKVLAFLAGNLLDPTPFNYRFGYLYLNRTSKVIVEETDTYIDSGMRMTQEAVAEIMQKFAQ | -3.9
HMSQDINVFIKTNPENATIIWDGESKGTNGIFKSNAGAHRLRIEMQGYESIDQDIQVSDKQFSFEYNLKKE | 0.152
HMADLNFHQQIRSLPPEQQEILLLRFGQELTLRQIAQVTGVPLRTVQSRLRAALKKLKSQLEKEE | -0.39
HMANHIAAIHVLKSKLQMSDSDYRVLITGLTQKASTKDMSDIERQRVRDHMQGLAERMGVVK | -0.18
HMRLATSELVYRIRALIRDQELQPGERLGSERALAQSLGISRSDLRMALAVLEASHEVIRKIGRAGGIVVS | -3.14
HMKFPNVGENLRLLRQEMGISLDKASKMTGVSKAMLGQIERGESSPTVSTLWKISSGFKINFTTLLSE | -2.38
HMYHIYPVADNDTPKLSADRLEYSLSNALLTNKLLNIDEIKKIYNDVILDKDEDGTLELSFKS | 0.0308
HMAEQDILQSVYPHIGGQDNVSRTISRNGTLYLMLKDASAVDLKAVKQVPGIADAALERGRLTLQLEE | 0.0398
HMITMWYYKKDGNIIGPASARKIASMRELGIITDSTPVSRKRNAKNWETFGGLSEKINLESSQWD | -1.9
HMRLHSSGEDYLKAIFILEAQHSSVRSVEVAEYMNVSKASVSHAVALLKKNGFLKMNQDYDLTER | 0.0124
HMTIENTDTFLETLWEQVQRASVDENGIITSRVLIWDEGTKLDEILSWFDKRHSLGALYLQFG | -2.47
HMKGKWKPIILWQLSKAPQSLSGLRHSIAGISQKMLIQHLNELIHFGFVVRTTFEGYPLKVEYDLTDRGR | -0.231
HMHQPPDLDDFEAFVGRVKPALLQALVATYGPVDGREATVDALSWAWEHWDRLADVDHPVGYLYRV | 0.0368
HMGGLIDQSIQEIIDKYSVPGKKIQKAQRLKIVAEMHTKGIFKMRGGVQQAAQALGVTRYTVYNDLEVMN | -2.89
HMVKGIVPNLIGKTQDEAKQMAEEYGFSIGTVSEKASDKPKGTVIEQSPKAGAKASGVTSINIVVSDGS | -0.0342
HMQTGYHVRITASTLNVRRDHSASSAVATQVRRGEVYTIVDEYNNGGTLWGKLKSGAGWIALKYTQS | -1.81
HMAGDDEIEKIAQDILAAWPDKVAAYQAGNKGLMGLFMGELMKKSQGKANPKVASGIIQKLLD | 0.0445

Sequence | soluble fraction (log2)
HMTGDIIKQERKKKNLTQIELAKKVGISRNALINYEAGTRIPPISVQLKLADVLGIDILDLK | -0.299
HMKTALQENVRAYRLERKWTQQALAEALEVSVGAVSKWESGVSRPELETLMRLAELFGVSTDALLGF | -1.75
HMVEYIENINLSEKQKFIAHEILKEIRGRAIFLRDVGLDYLNLSRKAGTLSGGEAQRIRLATQIGSA | 0.226
HMKPSKTDEAEYWLMERLEEGPQPAGDLIRIGEEFGYTPKILRDAGERFNMERYKDGLDHWMWKLPN | -0.0945
HMYRYGETPMVVVPDLIGRTVSDIYEEMNADFRLEKFGNGNTVISQAPKPGERVEQGSVIRVYLSGQDQ | 0.157
HMDEVHYLADKERGTTWEEILIHADRDIKFLSLSATINNKNEFLEWLVSLRGTTSLIHSSTRPIPLEI | 0.218
HMIDFDHADIERLWNSIIHYVPERQKLDFAIDFIKSLEDIGVEHDVLRGSAELDPKLEEAVNTVFE | -0.52
HMTDSLELADLLRRAIITGEYKPRERLVEMELAQKYSVSRTPVREALKHLEALGLVKMERYKGAMVAD | -0.46
HMVKPKIILADIGMITETDVTLAKASQAVLIAFNVKPSKEAKKLAEDENIKISTYNIIYEVLDFVKKSMSG | 0.12
HMFMNFAEHLMALRKQRGWSQEELGSQIGVTRQTVSKWEMGQSTPELEKLVELSRLFGMSIDQLVGL | 0.0203
HMASRSQTEIMHLLSSGLPKHELVTALQSLLGISKPTAYKYLSQDVSIAYDHMVKILEYPPFQRVLYQ | -1.34
HMNLAPLLTEYVQINFRRASEMKTYLEQANLISERGFLLADDQTNILMVRETGASIEEIRRTLNRF | -1.77
HMDSSNLSLIAGVGPTIEKKLRAAGITSWEQIAAWTEADVAKYDEELNLRGRITRDEWIEQAKELLAGKPP | -0.0993
HMVPADVQHLRDIVDTMTEKQQLVYKLHVLEGYTFTEIAKLMGTSIPNVKKHYDKAILFIKNNF | -0.909
HMETKKEIIEAINELEEKYRNAIYLTSIEKLSYEETSKILGQSLSNTKNLIHRGKQQLRKILIKK | -0.214
HMRISKRQLILESAAAIINEKGADYLTLDAVAQRAGISKGGLFYHFKSKDELIKELVNYANN | -0.14
HMTPESSLHSGLGKILHDALTAKIQLTNFEAKFLSDMQSKYDLNGSFSWLSSKQQTTLEKILAKYGR | -0.841
HMPSEQGANKARDIIFRHHMKVDVWVGSWENARNYAEQAIKQGVKVIISRGGTAALLRHSLDTAIIKVR | 0.0222
HMNIKYDFPTNSPLEMMRNLFDSNSQIINDLKDGFAMANSLNEQGLANFFAERIDKHQFWSWQLSASL | -0.399
HMPMNISDIIKQAREELGMTQEDLAERLEVSRQAVSKWELGASVPSPENLRLLEELLGVELPAP | -0.0297
HMYFFNTFTQRLFDNPELTQEEAIRQMYPGISGVQTAEKLQENFMADVYIQAAIRQEIVVQLIR | -0.529
HMVVANTAIKSELQNIVANENKQAPLSDQKIVDQLKQAGFDISRRTVVKYRDALGIPTSRNRKR | -0.131
HMKNYYRILGLNIDAEYEEIKAAYRILAQRHHPDKGGAAAEFRLIQEAYDILSNPLTKRNYDADLLATLN | -0.521
HMHIMINPDQLSPEQIQSIRTWAEEGLDLNAIQKRLHEDLNIKLTFMDTRFLLQDLDIRIRQPEPEPEAEQ | -0.00841
HMQVEYTRGELLQDLKEENVLYATITPSRETPTGEVDFVFKDKSIKTLYVTDVSEIEGLLMDYGIDPEVKK | -0.0511
HMNRIKIYPTPGSKVLSIENINFSLIHDFKILDIFGREVKNFTVSSEKNTKMLVDTSKLSDGLYFIFFNTF | -0.58

Sequence | soluble fraction (log2)
HMSVTYRLLITSSPGQAEVFLDGKRVGITPFSARLAAGWYQVRVSKEGYNLWEQHVQLREDQRLTATLT | -0.471
HMGTYTSALDGIKGLGKKRKMLLLNTYKSIDVLKSVPLTELSQLIPREVAEALLTKLNRVDD | -0.118
HMSGVIVPDIYNKTLAEAVASLEGEGFSTEKKEGYSDTVPKGNVMSQKPEAGTSAERGSTVTITISQGPQ | -0.0107
HMTVSIGSVIARERRLRGDTQQELAERLGVSKAAVSKWEVGQSIPDVTLLPRIAAYFSLTLDEL | -2.18
HMRARTLSTTGGESLLTLAESLYPDDDRARARFIEATAAANPKLFADIAALTRVLPAGTTLRMPDLRA | 0.0417
HMPAASDALAGELAQIARLDIAKLLAGDLSEADWSRITSATVQLSERHPDASDELTALVERIDTAYSARAT | 0.0455
HMTTYTGVVTGSGVNVRSGAGTSYPVVGSKTMGDVVTITETVSADGMIWGKIDIGWISMNYVRM | -0.75
HMNETRVDQAADLLLALLEKEPKSAAEILDEFEQAGFSKSGLYRAKDALGVVSIRKEGRWVWSLPHSLD | -0.104
HMPDPLYLINGKIVNKSDFNNIDPRSIQSIEVLKANKALEAFGNDGKNGVIKITLKSSNDQM | 0.0749
HMSEYEYALHEFGITKKQSQRIFDRLSIADLEERINAIQTTLKQRSDIDNPAAYAWTVLNAE | -0.207
HMNAESLIGDRAVVTVAIERNKRGRVDVTGQDWAATTRDGEEIKVGQEVLVVGISGVALIVEER | -0.426
HMVTQVDYGTFLTRIDEGKVKSVEIQDNQIAFTAIDEAGKENIYVTGKVNDPELVDRLLAADIEDFSQVIP | 0.12
HMSVKYLQIYHAIREKILSNEYAINQQLPDEITLTKEFNSSRMTVKKALDLLVSEGLIFRKRGQGTFVLSR | -2.27
HMGLLVPELTAEENVSLAAMIAGVPRQQARSISADLLNRLGLGQMLDRRMGEMSGGQAQRVAIAPIYGKF | -0.274
HMAIGERIRFLRTLRRMTQKELGLAAGFPEKNASIRMAQYENGTRTPKAELTAVLAEILKVSPQALTV | -1.2
HMKTSTGSAMYLTLDLAEKYAGQAFTLVHKKADGTFEYLYATADVDGKVKFGPVYELSPFMLVKGQL | -0.291
HMVLFDLSEREKEVLKLLADGNSYKMIASRLEITYFTVNAHLKKIYEKLQVHSASEAVSVALRNSL | -1.15
HMPNFDPSYILDFGDVIQLQLVGQKNQILEIPILRDGSVNLPDIGKIFLSGMSLEEATKIIKDTYSA | -0.679
HMFDFNNLSSLSDVELSVYRFVVNNPEKVAYMRVRDIAQKTHVANSSVMRFVHKIGFASFPEFKAYLKNIN | -1.03
HMKVKIFNGMKLVTNSTGLTVDGKPAALDESNADAKTYSQGLYVFIVYQSGKIAVMQDGKFLGYA | -1.77
HMGTDFRPVFQYVDELVRAGEFTNLKGMIYFTDGRGIFPEKKPDYDAAFVFLDDGYDPPDVPVWAIKLVL | -0.161
HMDMQNIQKGLSAIEPGRTFSREEYYAAIQNGSEMLLKEDALAYSLRKSLSDGDIVRVSWNQYAIP | -0.116
HMKRITGHLTEKNKKWYAVINLYDTDGKRKEKWQGLNLDANKGNKREAEHRLRQILDQYNTD | -0.0127
HMASVRPVAPPDPKTHTRLTYRIRRGDTLERIGRRYRVSIAEIQAWNTLRDPGDILAGQRLVIWIPTS | -2.3
